Laboratory results reported in doi:10.1101/2023.04.09.536162.

Biological target: L-threonine aldolase from Neptunomonas marine (NmLTA), wild type (Neptunomonas marine)
Experiment: crystal structure

Substance: L-threonine aldolase from Neptunomonas marine (NmLTA), wild type (enzyme)
- stoichiometry N: 4
